In one data set the test system is LacI. Kind of data set: EMSA. To be noted: IPTG; EMSA: 10 mM HEPES pH 7.5, 110 mM KCl, 5 mM MgCl2, 1 mM DTT, 200 ug/mL BSA, 1 pmol cold homoduplex, +/- 2 mM ATP, 20 min on ice; sucrose gradient: 10 mM ….
For data set [1], the target named is T1, human MutSα (MSH2·MSH6 heterodimer), wild type (human, UniProt P43246 1-934; P52701 1-1360).
T1 construct: MSH2 subunit of human MutSα; MSH6 subunit of human MutSα; also called WT MutSα; MSH2WT·MSH6WT; source: insect cells, purified to homogeneity
T1 sequence (P43246 whole entry, chain 1 of 2): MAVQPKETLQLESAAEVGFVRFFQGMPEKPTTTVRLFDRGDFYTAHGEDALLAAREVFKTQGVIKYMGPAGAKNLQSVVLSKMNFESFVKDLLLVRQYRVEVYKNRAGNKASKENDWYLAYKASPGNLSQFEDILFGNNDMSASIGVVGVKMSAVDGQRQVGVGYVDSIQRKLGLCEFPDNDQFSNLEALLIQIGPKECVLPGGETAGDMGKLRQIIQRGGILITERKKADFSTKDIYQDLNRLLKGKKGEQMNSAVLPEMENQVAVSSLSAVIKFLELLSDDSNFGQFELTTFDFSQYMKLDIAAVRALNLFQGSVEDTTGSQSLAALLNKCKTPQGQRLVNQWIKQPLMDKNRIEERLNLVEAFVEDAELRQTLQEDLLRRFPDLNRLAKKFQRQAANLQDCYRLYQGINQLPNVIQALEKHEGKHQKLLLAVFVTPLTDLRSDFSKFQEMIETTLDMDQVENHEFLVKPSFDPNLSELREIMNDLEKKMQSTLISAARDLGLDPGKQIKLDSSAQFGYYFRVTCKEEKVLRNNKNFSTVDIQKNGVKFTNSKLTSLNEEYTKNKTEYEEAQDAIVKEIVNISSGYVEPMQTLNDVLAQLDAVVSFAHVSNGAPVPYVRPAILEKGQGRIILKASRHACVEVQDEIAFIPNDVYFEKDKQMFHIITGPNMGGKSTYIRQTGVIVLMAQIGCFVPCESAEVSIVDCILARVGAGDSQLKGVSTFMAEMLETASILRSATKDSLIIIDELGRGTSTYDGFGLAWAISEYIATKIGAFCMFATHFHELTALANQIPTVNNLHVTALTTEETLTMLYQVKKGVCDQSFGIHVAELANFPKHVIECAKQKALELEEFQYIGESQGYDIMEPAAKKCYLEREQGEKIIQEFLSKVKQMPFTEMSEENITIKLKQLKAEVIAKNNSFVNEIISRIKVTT
T1 sequence (P52701 whole entry, chain 2 of 2): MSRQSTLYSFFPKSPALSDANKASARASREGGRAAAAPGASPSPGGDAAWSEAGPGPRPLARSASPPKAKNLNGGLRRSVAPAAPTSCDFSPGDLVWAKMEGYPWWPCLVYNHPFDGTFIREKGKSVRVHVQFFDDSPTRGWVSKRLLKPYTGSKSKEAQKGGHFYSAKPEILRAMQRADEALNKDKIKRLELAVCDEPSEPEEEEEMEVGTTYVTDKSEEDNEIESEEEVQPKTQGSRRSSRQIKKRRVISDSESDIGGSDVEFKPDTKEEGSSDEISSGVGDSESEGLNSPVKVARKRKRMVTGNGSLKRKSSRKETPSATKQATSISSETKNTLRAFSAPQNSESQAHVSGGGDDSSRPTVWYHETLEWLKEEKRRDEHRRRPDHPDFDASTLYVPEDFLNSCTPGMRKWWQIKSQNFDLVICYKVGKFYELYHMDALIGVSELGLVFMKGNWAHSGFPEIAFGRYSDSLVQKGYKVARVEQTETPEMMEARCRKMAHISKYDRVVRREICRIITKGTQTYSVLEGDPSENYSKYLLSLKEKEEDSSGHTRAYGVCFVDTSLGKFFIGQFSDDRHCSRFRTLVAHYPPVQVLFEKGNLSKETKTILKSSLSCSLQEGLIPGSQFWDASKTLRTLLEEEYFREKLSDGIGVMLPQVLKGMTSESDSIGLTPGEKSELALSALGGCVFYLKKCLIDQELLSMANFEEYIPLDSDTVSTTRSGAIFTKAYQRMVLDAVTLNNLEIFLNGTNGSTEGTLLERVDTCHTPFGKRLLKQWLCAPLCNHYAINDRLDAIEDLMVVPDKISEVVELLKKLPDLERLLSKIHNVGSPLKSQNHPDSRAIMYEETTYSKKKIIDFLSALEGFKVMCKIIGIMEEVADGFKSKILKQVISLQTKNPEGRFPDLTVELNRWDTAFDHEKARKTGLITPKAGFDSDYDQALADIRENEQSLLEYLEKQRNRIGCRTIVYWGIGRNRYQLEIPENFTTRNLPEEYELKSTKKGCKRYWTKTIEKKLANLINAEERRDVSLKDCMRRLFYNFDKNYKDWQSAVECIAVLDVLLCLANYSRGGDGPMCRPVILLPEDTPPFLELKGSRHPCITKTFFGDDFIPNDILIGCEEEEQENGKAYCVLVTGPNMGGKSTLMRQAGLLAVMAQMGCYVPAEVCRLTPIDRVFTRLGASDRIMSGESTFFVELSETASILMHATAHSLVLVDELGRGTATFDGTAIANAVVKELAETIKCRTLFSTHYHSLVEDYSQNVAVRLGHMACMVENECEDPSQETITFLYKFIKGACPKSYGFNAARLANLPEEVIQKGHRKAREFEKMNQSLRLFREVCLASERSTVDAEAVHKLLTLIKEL
Kind of data set: native gel or EMSA; with ATP (2 mM); 0.1 pmol 32P-labeled 100-bp duplex with a G–T mismatch, 2 pmol MutSα or MutLα; more slowly migrating MutSα–MutLα–DNA complex; 10 mM HEPES pH 7.5, 5 mM MgCl2, 1 mM DTT, 110 mM KCl, 20 min on ice; 4% non-denaturing polyacrylamide. To be noted: both partners purified. (A gel shift assay detects complexes by their altered migration in electrophoresis.)

We go through two molecules from PMC8089094, “Mispair-bound human MutS–MutL complex triggers DNA incisions and activates mismatch repair” (Cell Research, 2021).

“282-bp G-T heteroduplex with LOS I and LOS II”: the binding signal (% of binding released) in the data set with LacI is > 70.

B1: human MutLα (MLH1·PMS2 heterodimer), wild type (complex)
chain 1: MSFVAGVIRRLDETVVNRIAAGEVIQRPANAIKEMIENCLDAKSTSIQVIVKEGGLKLIQIQDNGTGIRKEDLDIVCERFTTSKLQSFEDLASISTYGFRGEALASISHVAHVTITTKTADGKCAYRASYSDGKLKAPPKPCAGNQGTQITVEDLFYNIATRRKALKNPSEEYGKILEVVGRYSVHNAGISFSVKKQGETVADVRTLPNASTVDNIRSIFGNAVSRELIEIGCEDKTLAFKMNGYISNANYSVKKCIFLLFINHRLVESTSLRKAIETVYAAYLPKNTHPFLYLSLEISPQNVDVNVHPTKHEVHFLHEESILERVQQHIESKLLGSNSSRMYFTQTLLPGLAGPSGEMVKSTTSLTSSSTSGSSDKVYAHQMVRTDSREQKLDAFLQPLSKPLSSQPQAIVTEDKTDISSGRARQQDEEMLELPAPAEVAAKNQSLEGDTTKGTSEMSEKRGPTSSNPRKRHREDSDVEMVEDDSRKEMTAACTPRRRIINLTSVLSLQEEINEQGHEVLREMLHNHSFVGCVNPQWALAQHQTKLYLLNTTKLSEELFYQILIYDFANFGVLRLSEPAPLFDLAMLALDSPESGWTEEDGPKEGLAEYIVEFLKKKAEMLADYFSLEIDEEGNLIGLPLLIDNYVPPLEGLPIFILRLATEVNWDEEKECFESLSKECAMFYSIRKQYISEESTLSGQQSEVPGSIPNSWKWTVEHIVYKALRSHILPPKHFTEDGNILQLANLPDLYKVFERC
chain 2: MERAESSSTEPAKAIKPIDRKSVHQICSGQVVLSLSTAVKELVENSLDAGATNIDLKLKDYGVDLIEVSDNGCGVEEENFEGLTLKHHTSKIQEFADLTQVETFGFRGEALSSLCALSDVTISTCHASAKVGTRLMFDHNGKIIQKTPYPRPRGTTVSVQQLFSTLPVRHKEFQRNIKKEYAKMVQVLHAYCIISAGIRVSCTNQLGQGKRQPVVCTGGSPSIKENIGSVFGQKQLQSLIPFVQLPPSDSVCEEYGLSCSDALHNLFYISGFISQCTHGVGRSSTDRQFFFINRRPCDPAKVCRLVNEVYHMYNRHQYPFVVLNISVDSECVDINVTPDKRQILLQEEKLLLAVLKTSLIGMFDSDVNKLNVSQQPLLDVEGNLIKMHAADLEKPMVEKQDQSPSLRTGEEKKDVSISRLREAFSLRHTTENKPHSPKTPEPRRSPLGQKRGMLSSSTSGAISDKGVLRPQKEAVSSSHGPSDPTDRAEVEKDSGHGSTSVDSEGFSIPDTGSHCSSEYAASSPGDRGSQEHVDSQEKAPKTDDSFSDVDCHSNQEDTGCKFRVLPQPTNLATPNTKRFKKEEILSSSDICQKLVNTQDMSASQVDVAVKINKKVVPLDFSMSSLAKRIKQLHHEAQQSEGEQNYRKFRAKICPGENQAAEDELRKEISKTMFAEMEIIGQFNLGFIITKLNEDIFIVDQHATDEKYNFEMLQQHTVLQGQRLIAPQTLNLTAVNEAVLIENLEIFRKNGFDFVIDENAPVTERAKLISLPTSKNWTFGPQDVDELIFMLSDSPGVMCRPSRVKQMFASRACRKSVMIGTALNTSEMKKLITHMGEMDHPWNCPHGRPTMRHIANLGVISQN
notes: MLH1 subunit of human MutLα; PMS2 subunit of human MutLα; also called WT MutLα; source: insect cells, purified to homogeneity
As to B1, the “stoichiometry N” value in data set [1] is > 1 molecule of MutLα in the MutSα–MutLα complex.
